Assay [1] concerns the target T1, human IGF1R (human, UniProt P08069 31-932, limits assumed).
T1 construct: also called hIGF1R; h-IGF1R
In words: SPR (Biacore T200), hIGF1R immobilised on CM4 chip, analyte injected at 20 nM, 25 C. The protocol:
(§1) Surface Plasmon Resonance (SPR) analysis was performed to determine the affinity of the IGF1R3H5-IDS construct towards human IGF1R (hIGR1R). The SPR analysis was performed on a Biacore T200 (GE Healthcare) under the following conditions. hIGF1R was immobilized on a CM4 chip at high density (FC1—ethanoloamine blocked; FC3—2,500 RUs of hIGF1R). A variable concentration of the flowing molecule was used, with contact and dissociations times of 300 and 400 s, respectively. The assay was performed at 25° C. with a flow rate of 40 μL/min and the chip was regenerated in 10 mM glycine (pH 5.5). […] In summary, the IGF1R3H5-IDS construct retains its ability to bind to the target receptor IGF1R.
(SPR reads the build-up and loss of mass on a sensor chip optically.)

The target of assay [2] is T1, human IGF1R. In words: SPR (Biacore T200), hIGF1R immobilised on CM4 chip, analyte injected at 50 nM, 25 C; text says matrix effects lower the on-rate at this concentration. The protocol:
as §1

The target of assay [3] is T1, human IGF1R. In words: SPR (Biacore T200), hIGF1R immobilised on CM4 chip, analyte injected at 2.5 nM, 25 C. How it is done: as §1
For assay [4], the target named is T1, human IGF1R. Nature of the assay: SPR, Biacore T200, hIGF1R immobilised on CM4 chip, analyte at 2.5 nM (FIG. 5C); analyte at 2.5 nM (FIG. 5C). The protocol:
as §1

Assay [5] deals with T1, human IGF1R. In words: SPR, Biacore T200, hIGF1R immobilised on CM4 chip, analyte at 50 nM (FIG. 5D); the filing calls this value inaccurate because of matrix effects; analyte at 50 nM (FIG. 5D); matrix effects, called inaccurate. The protocol:
as §1

The target of assay [6] is T1, human IGF1R. In words: SPR (Biacore T200), hIGF1R immobilised on CM4 chip, analyte injected at 50 nM, 25 C; text calls the affinity at this concentration inaccurate (matrix effects). How it is done: as §1
The target in assay [7] is T1, human IGF1R. In words: SPR, Biacore T200, hIGF1R immobilised on CM4 chip; parental VHH, not the IDS fusion.

T1 sequence (P08069 31-932 limits assumed): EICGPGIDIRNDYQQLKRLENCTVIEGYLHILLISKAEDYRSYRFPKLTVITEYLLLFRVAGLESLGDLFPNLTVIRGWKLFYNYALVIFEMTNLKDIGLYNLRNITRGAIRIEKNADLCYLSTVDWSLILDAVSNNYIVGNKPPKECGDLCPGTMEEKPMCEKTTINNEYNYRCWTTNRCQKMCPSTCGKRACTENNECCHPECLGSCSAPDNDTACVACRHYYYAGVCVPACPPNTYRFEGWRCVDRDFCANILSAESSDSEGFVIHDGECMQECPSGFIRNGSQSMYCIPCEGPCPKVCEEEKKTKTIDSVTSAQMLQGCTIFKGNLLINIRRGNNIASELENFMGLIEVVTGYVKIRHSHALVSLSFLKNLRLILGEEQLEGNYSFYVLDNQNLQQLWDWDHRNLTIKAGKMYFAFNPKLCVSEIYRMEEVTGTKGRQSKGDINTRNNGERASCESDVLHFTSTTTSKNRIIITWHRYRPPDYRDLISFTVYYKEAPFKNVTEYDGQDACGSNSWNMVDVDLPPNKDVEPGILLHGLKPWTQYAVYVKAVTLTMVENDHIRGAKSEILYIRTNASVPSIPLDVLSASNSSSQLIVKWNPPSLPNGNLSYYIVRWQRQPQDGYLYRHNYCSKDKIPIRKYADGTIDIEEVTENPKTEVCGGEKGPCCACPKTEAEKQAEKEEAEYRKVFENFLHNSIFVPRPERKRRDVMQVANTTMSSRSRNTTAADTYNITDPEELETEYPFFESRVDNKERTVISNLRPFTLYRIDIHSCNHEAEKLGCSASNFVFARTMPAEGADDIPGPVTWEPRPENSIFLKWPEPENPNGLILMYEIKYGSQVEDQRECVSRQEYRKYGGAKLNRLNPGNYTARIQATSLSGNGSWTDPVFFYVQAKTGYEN

B1: IGF1R3H5-IDS (uncapped) (other)
chain: EVQLVESGGGLVQPGGSLRLSCAASEYPSNFYAMSWFRQAPGKEREFVSGVSRDGLTTLYADSVKGRFTISRDNSKNTLYLQMNSLRAEDTAVYYCAIVITGVWNKVDVNSRSYHYWGQGTLVTVSSGGGGSGGGGSGGGGSGGGGSGGGGSSETQANSTTDALNVLLIIVDDLRPSLGCYGDKLVRSPNIDQLASHSLLFQNAFAQQAVCAPSRVSFLTGRRPDTTRLYDFNSYWRVHAGNFSTIPQYFKENGYVTMSVGKVFHPGISSNHTDDSPYSWSFPPYHPSSEKYENTKTCRGPDGELHANLLCPVDVLDVPEGTLPDKQSTEQAIQLLEKMKTSASPFFLAVGYHKPHIPFRYPKEFQKLYPLENITLAPDPEVPDGLPPVAYNPWMDIRQREDVQALNISVPYGPIPVDFQRKIRQSYFASVSYLDTQVGRLLSALDDLQLANSTIIAFTSDHGWALGEHGEWAKYSNFDVATHVPLIFYVPGRTASLPEAGEKLFPYLDPFDSASQLMEPGRQSMDLVELVSLFPTLAGLAGLQVPPRCPVPSFHVELCREGKNLLKHFRFRDLEEDPYLPGNPRELIAYSQYPRPSDIPQWNSDKPSLKDIKIMGYSIRTIDYRYTVWVGFNPDEFLANFSDIHAGELYFVDSDPLQDHNMYNDSQGGDLFQLLMPHHHHHHHHWSHPQFEK
modifications: phosphorylated N-glycans; Man-6-P uncapped by Jack Bean alpha-mannosidase (JBMan) treatment
notes: Single-chain fusion of a VHH with an enzyme, made in Yarrowia lipolytica; the two differ only in N-glycan uncapping; also called uncapped IGF1R3H5-IDS; P454
One may read the Kd as the equilibrium constant for the complex coming apart. What is called koff is a measure of how fast the partners let go of each other. The term kon denotes the second-order rate constant of association. Take B1: in the assay with human IGF1R [1], the Kd came to 40.2 nM, the off-rate constant (koff) was 0.00289 s⁻¹ and the association rate constant (kon) came out at 71900 M⁻¹ s⁻¹.

B2: IGF1R3H5-IDS (capped) (other)
chain: B1 chain
modifications: phosphorylated N-glycans; Man-6-P still capped (no uncapping)
notes: also called capped IGF1R3H5-IDS
Take B2: the Kd is 46.1 nM with human IGF1R [1]; 7.42 nM with human IGF1R [3]; approximately 7 nM with human IGF1R [4]; approximately 70 nM with human IGF1R [5]; 69.8 nM with human IGF1R [6]. Also, the koff is 0.00295 s⁻¹ with human IGF1R [1], 0.0029 s⁻¹ with human IGF1R [2] and 0.00288 s⁻¹ with human IGF1R [3]. Further, the association rate constant (kon) is 64000 M⁻¹ s⁻¹ with human IGF1R [1], 42000 M⁻¹ s⁻¹ in the assay with human IGF1R [2] and 388000 M⁻¹ s⁻¹ with human IGF1R [3].

B3: IGF1R3H5 VHH (VHH)
VHH: EVQLVESGGGLVQPGGSLRLSCAASEYPSNFYAMSWFRQAPGKEREFVSGVSRDGLTTLYADSVKGRFTISRDNSKNTLYLQMNSLRAEDTAVYYCAIVITGVWNKVDVNSRSYHYWGQGTLVTVSS
notes: also called parental VHH IGF1R3H5
B3: in the assay with human IGF1R [7], the dissociation constant Kd was 7.5 nM, the koff turned out to be 0.00251 s⁻¹ and the kon worked out at 334000 M⁻¹ s⁻¹.

The record behind these values is US20210253715A1 (NATIONAL RESEARCH COUNCIL OF CANADA, published 2021).
